Test results: patent US20050003548A1

Target: human CD40 on cells (293.CD40 cells, Namalwa cells, human monocyte-derived dendritic cells) (human) (UniProt P25942)
Test: cell-based or functional assay

Chain of UniProt P25942 (P25942 21-277): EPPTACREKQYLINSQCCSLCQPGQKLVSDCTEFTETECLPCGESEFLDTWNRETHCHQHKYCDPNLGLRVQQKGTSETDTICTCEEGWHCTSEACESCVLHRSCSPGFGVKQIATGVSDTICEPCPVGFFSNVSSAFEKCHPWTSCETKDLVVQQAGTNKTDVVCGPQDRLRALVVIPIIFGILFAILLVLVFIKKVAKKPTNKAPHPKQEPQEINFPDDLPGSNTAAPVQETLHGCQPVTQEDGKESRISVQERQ

Substance	reporter gene delivery to human monocyte-derived dendritic cells by Ad5.DR-LL-Cd complexed with the ligand, fold over Ad5.DR [fold]
Fc-CD40L (TNF-like domain of human CD40 Ligand fused to the hinge region of the Fc domain of human IgG gamma 1) (from UniProt P29965 116-261) (Fc fusion)	28 to 35
Fc-G28.5 (fusion of anti-CD40 single chain antibody G28.5 with the Fc domain of human immunoglobulin and a six-histidine sequence) (Fc fusion)	28 to 35
